Assay results as given in the supplement of paper PMC10724198.
± gives the standard deviation of the averaged measurements.

Tests used:
[1] = system: Saccharomyces cerevisiae; experiment: protein stability index of tFT-peptide fusion (C-terminal peptide) (PSI (0-1 scale)); higher = more stable (slower turnover); conditions: genetic background: wild type; temperature: 30 C
[2] = system: Saccharomyces cerevisiae; experiment: as above
Procedure: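 MPS profiling in S. cerevisiae of the tFT-X12 degron library: putative degron peptides plus stable controls, 12 aa, fused to the C-terminus of a sfGFP-mCherry timer. Cells are FACS-sorted into 8 mCherry/sfGFP bins and deep-sequenced. PSI runs from 0 (unstable) to 1 (stable). Backgrounds are wild type, das1Δ and doa10Δ at 30 °C, and wild type, das1Δ, cdc34-1 and cdc53-1 at 37 °C; 2-3 technical replicates each.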

[3] = genetic background: cdc34-1, temperature: 37 C
[4] = genetic background: cdc53-1, temperature: 37 C
[5] = genetic background: das1 deletion, temperature: 30 C
[6] = genetic background: das1 deletion, temperature: 37 C
[7] = genetic background: doa10 deletion, temperature: 30 C
[8] = genetic background: wild type, temperature: 30 C
[9] = genetic background: wild type, temperature: 37 C
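Also: PSI is a weighted mean of sequencing reads over stability bins, variants kept only with over 10 reads, mCherry proximal and sfGFP distal, peptide attached via GGGS linker.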

| Sequence | protein stability index [1] | protein stability index [2, 3] | protein stability index [2, 4] | protein stability index [2, 5] | protein stability index [2, 6] | protein stability index [2, 7] | protein stability index [2, 8] | protein stability index [2, 9] |
| --- | --- | --- | --- | --- | --- | --- | --- | --- |
| DPKQVRIQSSWL | 0.7428 ± 0.0039 | 0.699 ± 0.016 | 0.721 ± 0.046 | 0.644 ± 0.042 | 0.723 ± 0.013 | 0.6273 ± 0.0026 | 0.663 ± 0.018 | 0.6863 ± 0.0034 |
| WQGLSGSPILVI | 0.402 ± 0.016 | 0.197 ± 0.012 | 0.248 ± 0.015 | 0.247 ± 0.037 | 0.3829 ± 0.0012 | 0.206 ± 0.0061 | 0.241 ± 0.048 | 0.334 ± 0.013 |
| LWCLVWGGVWGV | 0.447 ± 0.009 | 0.458 ± 0.014 | 0.5417 ± 0.005 | 0.353 ± 0.041 | 0.555 ± 0.0028 | 0.34 ± 0.0085 | 0.343 ± 0.039 | 0.508 ± 0.012 |
| WSSWFLWVIFRL | 0.348 ± 0.02 | 0.176 ± 0.011 | 0.173 ± 0.023 | 0.34 ± 0.035 | 0.433 ± 0.056 | 0.459 ± 0.0077 | 0.289 ± 0.035 | 0.288 ± 0.035 |
| QVLISLYVHGYF | 0.501 ± 0.008 | 0.551 ± 0.053 | 0.5374 ± 0.0037 | 0.453 ± 0.047 | 0.51 ± 0.017 | 0.388 ± 0.011 | 0.426 ± 0.02 | 0.519 ± 0.019 |
| FSFVVRMFFRIL | 0.154 ± 0.014 | 0.218 ± 0.009 | 0.266 ± 0.0039 | 0.39 ± 0.038 | 0.408 ± 0.022 | 0.0869 ± 0.019 | 0.0811 ± 0.015 | 0.0988 ± 0.0082 |
| LPILFPAALRLY | 0.44 ± 0.02 | 0.552 ± 0.0097 | 0.577 ± 0.028 | 0.521 ± 0.025 | 0.604 ± 0.01 | 0.267 ± 0.013 | 0.285 ± 0.026 | 0.455 ± 0.029 |
| VLDFSVPRHVLH | 0.707 ± 0.024 | 0.696 ± 0.014 | 0.7655 ± 0.0041 | 0.66 ± 0.0056 | 0.7364 ± 0.0016 | 0.661 ± 0.013 | 0.678 ± 0.035 | 0.7472 ± 0.0033 |
| YLFFVCLHLKAG | 0.302 ± 0.044 | 0.233 ± 0.03 | 0.335 ± 0.018 | 0.227 ± 0.031 | 0.417 ± 0.013 | 0.174 ± 0.0063 | 0.206 ± 0.018 | 0.3494 ± 0.00053 |
| SIFLCRLQNLLI | 0.389 ± 0.077 | 0.637 ± 0.0071 | 0.742 ± 0.023 | 0.632 ± 0.0083 | 0.734 ± 0.018 | 0.19 ± 0.017 | 0.209 ± 0.035 | 0.407 ± 0.0057 |
| PHVSALSRDPES | 0.716 ± 0.018 | 0.698 ± 0.038 | 0.728 ± 0.0092 | 0.649 ± 0.021 | 0.7247 ± 0.0027 | 0.65 ± 0.025 | 0.662 ± 0.017 | 0.701 ± 0.016 |
| LRPTFLLLFRPL | 0.493 ± 0.096 | 0.292 ± 0.022 | 0.283 ± 0.037 | 0.377 ± 0.032 | 0.474 ± 0.011 | 0.618 ± 0.004 | 0.407 ± 0.017 | 0.4302 ± 0.0023 |
| CVCLWCFLVWAR | 0.384 ± 0.016 | 0.307 ± 0.018 | 0.391 ± 0.029 | 0.259 ± 0.025 | 0.4581 ± 0.0023 | 0.259 ± 0.013 | 0.246 ± 0.027 | 0.436 ± 0.017 |
| PLFFGVQAFGGV | 0.7335 ± 0.0045 | 0.727 ± 0.026 | 0.79052 ± 0.0004 | 0.664 ± 0.029 | 0.7644 ± 0.0042 | 0.669 ± 0.033 | 0.679 ± 0.014 | 0.7622 ± 0.0021 |
| SMPWFWFVRGIG | 0.461 ± 0.0082 | 0.497 ± 0.041 | 0.531 ± 0.0014 | 0.5 ± 0.017 | 0.557 ± 0.0094 | 0.438 ± 0.032 | 0.417 ± 0.013 | 0.5186 ± 0.0039 |
| GCCFVCSVFWWG | 0.431 ± 0.011 | 0.407 ± 0.0055 | 0.493 ± 0.0055 | 0.348 ± 0.031 | 0.528 ± 0.0081 | 0.327 ± 0.014 | 0.353 ± 0.015 | 0.507 ± 0.011 |
| FVLWYFCCVGCM | 0.321 ± 0.016 | 0.241 ± 0.017 | 0.305 ± 0.018 | 0.232 ± 0.026 | 0.366 ± 0.011 | 0.196 ± 0.015 | 0.226 ± 0.03 | 0.342 ± 0.03 |
| LFLSAFFYLLVW | 0.284 ± 0.039 | 0.199 ± 0.0028 | 0.2233 ± 0.0014 | 0.245 ± 0.029 | 0.341 ± 0.0047 | 0.277 ± 0.0047 | 0.238 ± 0.014 | 0.3077 ± 0.002 |
| LFSFFVFFFLLD | 0.435 ± 0.034 | 0.358 ± 0.086 | 0.446 ± 0.0062 | 0.364 ± 0.044 | 0.522 ± 0.031 | 0.375 ± 0.005 | 0.37 ± 0.031 | 0.476 ± 0.02 |
| APLLPPALALTC | 0.505 ± 0.025 | 0.533 ± 0.029 | 0.516 ± 0.038 | 0.389 ± 0.034 | 0.5268 ± 0.0035 | 0.3512 ± 0.00062 | 0.407 ± 0.028 | 0.484 ± 0.02 |

| Sequence | protein stability index [1] | protein stability index [2, 3] | protein stability index [2, 4] | protein stability index [2, 5] | protein stability index [2, 6] | protein stability index [2, 7] | protein stability index [2, 8] | protein stability index [2, 9] |
| --- | --- | --- | --- | --- | --- | --- | --- | --- |
| WWADRLVGVCIV | 0.491 ± 0.011 | 0.55 ± 0.034 | 0.539 ± 0.026 | 0.439 ± 0.024 | 0.587 ± 0.0076 | 0.38961 ± 2.3e-05 | 0.422 ± 0.023 | 0.5359 ± 0.00088 |
| PLRKYLRHLLSL | 0.218 ± 0.055 | 0.59822 ± 0.00032 | 0.7453 ± 0.0022 | 0.647 ± 0.022 | 0.735 ± 0.036 | 0.1635 ± 0.0013 | 0.159 ± 0.012 | 0.285 ± 0.0041 |
| PISNMSIILLFL | 0.48 ± 0.04 | 0.495 ± 0.072 | 0.595 ± 0.043 | 0.439 ± 0.028 | 0.593 ± 0.016 | 0.378 ± 0.018 | 0.391 ± 0.015 | 0.556 ± 0.027 |
| VVFLFVEAVVGV | 0.0707 ± 0.0075 | 0.0536 ± 0.018 | 0.0519 ± 0.021 | 0.0387 ± 0.014 | 0.0974 ± 0.015 | 0.0288 ± 0.0048 | 0.0238 ± 0.0054 | 0.0933 ± 0.022 |
| LFFFRLFVFWVF | 0.203 ± 0.0063 | 0.195 ± 0.034 | 0.173 ± 0.037 | 0.238 ± 0.021 | 0.369 ± 0.01 | 0.173 ± 0.014 | 0.157 ± 0.023 | 0.251 ± 0.0066 |
| SYFASLLDLFTA | 0.598 ± 0.16 | 0.727 ± 0.062 | 0.77 ± 0.0079 | 0.66 ± 0.011 | 0.766 ± 0.018 | 0.669 ± 0.018 | 0.674 ± 0.012 | 0.759 ± 0.021 |
| FCSPFFFFLFRL | 0.4182 ± 0.00048 | 0.283 ± 0.072 | 0.241 ± 0.032 | 0.357 ± 0.028 | 0.4269 ± 0.003 | 0.469 ± 0.0056 | 0.315 ± 0.031 | 0.361 ± 0.03 |
| CVCPFCVWVSCL | 0.433 ± 0.081 | 0.598 ± 0.066 | 0.744 ± 0.054 | 0.51 ± 0.027 | 0.752 ± 0.0091 | 0.242 ± 0.0047 | 0.263 ± 0.032 | 0.4205 ± 0.0029 |
| WVGWVVVLGCVG | 0.489 ± 0.013 | 0.373 ± 0.027 | 0.42 ± 0.012 | 0.29 ± 0.026 | 0.47 ± 0.013 | 0.25152 ± 0.00025 | 0.282 ± 0.018 | 0.449 ± 0.022 |
| LSSRGGRCRRLV | 0.481 ± 0.037 | 0.714 ± 0.059 | 0.727 ± 0.028 | 0.652 ± 0.016 | 0.7555 ± 0.0039 | 0.321 ± 0.0092 | 0.37 ± 0.013 | 0.588 ± 0.017 |
| LRSLLIIYLLIF | 0.279 ± 0.039 | 0.2561 ± 0.0023 | 0.292 ± 0.025 | 0.253 ± 0.038 | 0.404 ± 0.0084 | 0.203 ± 0.0043 | 0.192 ± 0.0044 | 0.31 ± 0.012 |
| VACTCILVALVV | 0.142 ± 0.035 | 0.059 ± 0.0069 | 0.164 ± 0.02 | 0.0772 ± 0.027 | 0.198 ± 0.0045 | 0.0424 ± 0.0038 | 0.0686 ± 0.035 | 0.165 ± 0.005 |
| LFLVLFCVVGFV | 0.282 ± 0.0047 | 0.234 ± 0.036 | 0.311 ± 0.031 | 0.226 ± 0.027 | 0.377 ± 0.0076 | 0.222 ± 0.0075 | 0.219 ± 0.02 | 0.337 ± 0.011 |
| VSFLVSIFVSGV | 0.303 ± 0.039 | 0.189 ± 0.025 | 0.246 ± 0.036 | 0.216 ± 0.029 | 0.372 ± 0.0078 | 0.2 ± 0.025 | 0.194 ± 0.048 | 0.332 ± 0.015 |
| VGGGGRFWVCVG | 0.406 ± 0.04 | 0.657 ± 0.03 | 0.73937 ± 0.00061 | 0.629 ± 0.0064 | 0.737 ± 0.011 | 0.2122 ± 0.0019 | 0.237 ± 0.025 | 0.552 ± 0.031 |
| AFYLCLYFMPVS | 0.4375 ± 0.0033 | 0.454 ± 0.026 | 0.548 ± 0.036 | 0.371 ± 0.028 | 0.503 ± 0.012 | 0.358 ± 0.032 | 0.367 ± 0.029 | 0.52 ± 0.0093 |
| FALFCFVIFMSR | 0.363 ± 0.06 | 0.22 ± 0.05 | 0.373 ± 0.1 | 0.245 ± 0.081 | 0.398 ± 0.034 | 0.277 ± 0.028 | 0.227 ± 0.068 | 0.381 ± 0.063 |
| SLVPSIFLFRIF | 0.4516 ± 0.0032 | 0.566 ± 0.042 | 0.613 ± 0.0084 | 0.544 ± 0.028 | 0.682 ± 0.0094 | 0.323 ± 0.0096 | 0.307 ± 0.022 | 0.467 ± 0.014 |
| VYKSTHKIYILT | 0.45 ± 0.022 | 0.609 ± 0.011 | 0.729 ± 0.023 | 0.53 ± 0.011 | 0.6774 ± 0.0066 | 0.318 ± 0.0091 | 0.364 ± 0.028 | 0.5493 ± 0.0012 |
